In the supplement of paper PMC7877785:
± gives the uncertainty stated by the source.

Test: self-splicing fitness, log relative to wild type (ln ratio); higher = more splicing; Tetrahymena group I intron in knt gene, E. coli kanamycin selection, DiMSum; sequences stand for … in CUCUCU…GGAGGGAAAAGUUAUCAGGCAUGCACCUGGUAGCUAGUCUUUAAACCAAUAGAUUGCAUCGGUUUAAAAGGCAAGACCGUCAAAUUGCGGGAAAGGGGUCAACAGCCGUUCAGUACCAAGUCUCAGGGGAAACUUUGAGAUGGCCUUGCAAAGGGUAUGGUAAUAAGCUGACGGACAUGGUCCUAACCACGCAGCCAAGUCCUAAGUCAACAGAUCUUCUGUUGAUAUGGAUGCAGUUCACAGACUAAAUGUCGGUCGGGGAAGAUGUAUUCUUCUCAUAAGAUAUAGUCGGACCUCUCCUUAAUGGGAGCUAGCGGAUGAAGUGAUGCAACACUGGAGCCGCUGGGAACUAAUUUGUAUGCGAAAGUAUAUUGAUUAGUUUUGGAGUACUCGUGGUCG
Procedure, shortened: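 A randomised library covering all eight P1ex-region intron nucleotides was built with the intron in the knt kanamycin-resistance gene on pET-22b(+) and held in E. coli BL21(DE3). Cells were grown overnight at 37°C or 30°C on LB agar, with or without 25 μg/mL kanamycin, plus 100 μg/mL carbenicillin, 50 μM IPTG and 0.2% rhamnose, and pooled colonies were amplicon-sequenced on an Illumina HiSeq 2500. DiMSum fitness is the error-weighted combination of wild-type-normalised replicate fold changes, kanamycin versus none.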

Sequence | self-splicing fitness (ln) (30 °C) | self-splicing fitness (ln) (37 °C)
GAUGAGCAAUAUUACGAGCA | -2.59 ± 0.37 | 
GAUGAGCAAUAUUACGAGUA | -3.4 ± 0.43 | -1.92 ± 0.2
GAUGAGCAAUAUUACGAGUG | -3.06 ± 0.17 | -0.833 ± 0.18
GAUGAGCAAUAUUACGAUAG | -3.33 ± 0.16 | -2.42 ± 0.17
GAUGAGCAAUAUUACGCAGC |  | -1.61 ± 0.41
GAUGAGCAAUAUUACGCCCU | -1.75 ± 0.15 | -1.4 ± 0.17
GAUGAGCAAUAUUACGCCGG |  | -2.46 ± 0.45
GAUGAGCAAUAUUACGCUAG |  | -1.33 ± 0.39
GAUGAGCAAUAUUACGGGCG | -3.36 ± 0.39 | -1.45 ± 0.26
GAUGAGCAAUAUUACGGGGC | -3.24 ± 0.33 | -2.28 ± 0.23
GAUGAGCAAUAUUACGUAAA | -3.81 ± 0.17 | -1.37 ± 0.15
GAUGAGCAAUAUUACGUACC | -0.53 ± 0.35 | -1.77 ± 0.44
GAUGAGCAAUAUUACGUCAA | -3.32 ± 0.28 | -3.44 ± 0.37
GAUGAGCAAUAUUACGUCAC | -3.62 ± 0.4 | -2.47 ± 0.26
GAUGAGCAAUAUUACGUCGG |  | -2.87 ± 0.34
GAUGAGCAAUAUUACGUGGA | -2.47 ± 0.21 | -2.5 ± 0.22
GAUGAGCAAUAUUACGUUAA | -2.39 ± 0.32 | 
GAUUAGCAAUAUUACGAGAC | -1.51 ± 0.3 | -1.1 ± 0.22
GAUUAGCAAUAUUACGAGCU | -1.23 ± 0.088 | -0.791 ± 0.16
GAUUAGCAAUAUUACGAGUC | -3.17 ± 0.27 | -2.58 ± 0.33
GAUUAGCAAUAUUACGCAUU | -2.53 ± 0.14 | -2.25 ± 0.17
GAUUAGCAAUAUUACGCCUA | -0.405 ± 0.092 | 0.169 ± 0.095
GAUUAGCAAUAUUACGCGAU | -3.61 ± 0.37 | -1.27 ± 0.44
GAUUAGCAAUAUUACGGCGA | -1.12 ± 0.11 | -0.219 ± 0.11
GAUUAGCAAUAUUACGGCUC | 0.285 ± 0.096 | 0.441 ± 0.12

Sequence | self-splicing fitness (ln) (30 °C) | self-splicing fitness (ln) (37 °C)
GAUUAGCAAUAUUACGGGCG | -1.63 ± 0.15 | -1.33 ± 0.17
GAUUAGCAAUAUUACGGUAC | -2.14 ± 0.37 | -0.994 ± 0.22
GAUUAGCAAUAUUACGGUGC | -1.8 ± 0.34 | -1.4 ± 0.32
GAUUAGCAAUAUUACGGUUC | -3.38 ± 0.18 | -1.96 ± 0.23
GAUUAGCAAUAUUACGGUUG | -1.43 ± 0.12 | -1.02 ± 0.15
GAUUAGCAAUAUUACGUCCG | -1.73 ± 0.25 | -2.61 ± 0.41
GAUUAGCAAUAUUACGUCUA | -1.14 ± 0.095 | -0.229 ± 0.085
GAUUAGCAAUAUUACGUCUC | -1.24 ± 0.33 | -0.965 ± 0.32
GAUUAGCAAUAUUACGUGGU | -2.61 ± 0.18 | -2.47 ± 0.2
GCAAAGCAAUAUUACGAAAG | -2.86 ± 0.19 | -1.94 ± 0.21
GCAAAGCAAUAUUACGAAGA | -1.88 ± 0.18 | -2.45 ± 0.23
GCAAAGCAAUAUUACGAGCA | -2.04 ± 0.095 | -0.394 ± 0.08
GCAAAGCAAUAUUACGAUAC | -1.69 ± 0.1 | -0.587 ± 0.14
GCAAAGCAAUAUUACGAUCA | -1.4 ± 0.12 | -0.882 ± 0.11
GCAAAGCAAUAUUACGCACU | -0.557 ± 0.078 | 0.031 ± 0.092
GCAAAGCAAUAUUACGCCCC | -0.913 ± 0.19 | -0.135 ± 0.31
GCAAAGCAAUAUUACGCUAC | -2.2 ± 0.16 | -2.09 ± 0.26
GCAAAGCAAUAUUACGGAAU | -2.6 ± 0.1 | -0.938 ± 0.11
GCAAAGCAAUAUUACGGAGA | -2.82 ± 0.45 | 
GCAAAGCAAUAUUACGGGAA | -2.43 ± 0.1 | -0.474 ± 0.081
GCAAAGCAAUAUUACGGGUA | -1.55 ± 0.11 | -0.7 ± 0.097
GCAAAGCAAUAUUACGGUUG | -2.86 ± 0.13 | -2.04 ± 0.16
GCAAAGCAAUAUUACGUACU | -0.928 ± 0.067 | 0.299 ± 0.095
GCAAAGCAAUAUUACGUCAG | -3.89 ± 0.29 | -1.56 ± 0.16
GCAAAGCAAUAUUACGUCUG | -2.54 ± 0.11 | -1.69 ± 0.085
